Laboratory results reported in US20230203131A1 (OSAKA UNIVERSITY, published 2023).
Values belong to the molecule of their own block, whether it stands above or below them.

Columns and labels:
[1] = molecular target: Perlecan-fused Chimera-511 (Chimera-511P), not treated with thrombin (human) (UniProt P02675); test: solid-phase integrin binding assay (ELISA): Chimera-511P coated, α6β1 integrin titrated, as in Example 1 (5)
α6β1 integrin [2] = molecular target: T1, α6β1 integrin (UniProt P23229 24-1011; P05556 21-728); test: solid-phase integrin binding assay (ELISA): LM511E8 coated at 10 nM, α6β1 integrin titrated 0.001-100 nM in 1 mM MnCl2
T1 construct: Soluble protein added to plates and detected with a biotin-labeled Velcro antibody
T1 sequence (P23229 other isoform, or with tags, fused parts or gaps, chain 1 of 2): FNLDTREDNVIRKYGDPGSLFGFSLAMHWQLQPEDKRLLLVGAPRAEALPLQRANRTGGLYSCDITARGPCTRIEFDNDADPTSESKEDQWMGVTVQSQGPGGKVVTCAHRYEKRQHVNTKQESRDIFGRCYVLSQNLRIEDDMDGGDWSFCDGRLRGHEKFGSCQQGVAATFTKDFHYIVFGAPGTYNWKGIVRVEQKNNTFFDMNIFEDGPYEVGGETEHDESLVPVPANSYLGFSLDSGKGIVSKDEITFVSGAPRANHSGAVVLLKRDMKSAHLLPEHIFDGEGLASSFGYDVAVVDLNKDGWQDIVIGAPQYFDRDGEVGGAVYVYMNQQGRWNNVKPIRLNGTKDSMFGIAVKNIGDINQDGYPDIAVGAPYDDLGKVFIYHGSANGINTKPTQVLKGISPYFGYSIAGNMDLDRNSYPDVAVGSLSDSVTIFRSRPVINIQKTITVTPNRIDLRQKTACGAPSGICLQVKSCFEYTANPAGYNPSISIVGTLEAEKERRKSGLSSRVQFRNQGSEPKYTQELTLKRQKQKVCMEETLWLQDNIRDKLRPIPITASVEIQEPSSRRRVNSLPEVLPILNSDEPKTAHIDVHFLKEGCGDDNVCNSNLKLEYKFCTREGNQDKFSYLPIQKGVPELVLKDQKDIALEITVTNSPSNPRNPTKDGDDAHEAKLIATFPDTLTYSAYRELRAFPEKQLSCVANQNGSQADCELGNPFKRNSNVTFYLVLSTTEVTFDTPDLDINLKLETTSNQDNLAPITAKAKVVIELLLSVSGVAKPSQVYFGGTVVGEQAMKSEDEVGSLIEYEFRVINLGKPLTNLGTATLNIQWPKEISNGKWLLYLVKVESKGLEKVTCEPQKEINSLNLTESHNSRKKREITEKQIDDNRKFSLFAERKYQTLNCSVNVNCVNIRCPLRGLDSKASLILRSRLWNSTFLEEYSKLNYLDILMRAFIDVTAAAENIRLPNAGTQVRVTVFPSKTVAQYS
T1 sequence (P05556 21-728, chain 2 of 2): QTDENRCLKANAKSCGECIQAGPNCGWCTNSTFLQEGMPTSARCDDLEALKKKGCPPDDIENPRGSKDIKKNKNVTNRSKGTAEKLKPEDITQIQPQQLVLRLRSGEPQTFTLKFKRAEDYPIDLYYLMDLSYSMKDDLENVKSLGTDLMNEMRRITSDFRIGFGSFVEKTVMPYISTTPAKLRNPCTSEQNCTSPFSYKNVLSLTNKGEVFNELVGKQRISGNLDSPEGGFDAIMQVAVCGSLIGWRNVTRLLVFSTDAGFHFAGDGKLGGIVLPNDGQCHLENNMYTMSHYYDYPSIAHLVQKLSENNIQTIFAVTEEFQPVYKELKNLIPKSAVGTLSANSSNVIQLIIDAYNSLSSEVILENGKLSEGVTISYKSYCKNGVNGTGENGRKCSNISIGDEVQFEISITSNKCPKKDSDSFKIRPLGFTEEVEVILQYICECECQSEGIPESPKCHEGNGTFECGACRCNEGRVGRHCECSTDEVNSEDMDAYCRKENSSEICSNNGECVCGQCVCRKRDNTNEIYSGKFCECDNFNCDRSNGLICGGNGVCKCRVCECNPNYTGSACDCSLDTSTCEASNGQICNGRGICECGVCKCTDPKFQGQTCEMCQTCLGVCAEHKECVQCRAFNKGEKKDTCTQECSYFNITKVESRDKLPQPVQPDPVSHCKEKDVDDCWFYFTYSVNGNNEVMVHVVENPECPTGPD
Description: (§1) The plates were incubated with gentle agitation at 4° C. overnight for coating.
(§2) Integrin binding assay was performed according to the method of Ido et al. (Hiroyuki Ido et al. J. Biol. Chem., 282, 11144-11154, 2007). The specific procedure was as follows. […] Next, TBST supplemented with 1% BSA was added at 200 μL/well, and the plates were incubated with agitation on a shaker (B. Braun Biotech International CERTOMAT MT) at room temperature for 1 hour for blocking. The plates were washed once with 200 μL/well of 0.1% BSA/TBST. α6β1 integrin was diluted to final concentrations of 0.001 nM, 0.003 nM, 0.01 nM, 0.03 nM, 0.1 nM, 0.3 nM, 1 nM, 3 nM, 10 nM, 30 nM, and 100 nM in 0.1% BSA/TBST containing 1 mM MnCl₂ or 10 mM EDTA. The diluted α6β1 integrin solutions were added to the plates at 50 μL/well and allowed to react with agitation using the shaker at room temperature for 3 hours.
(§3) After the reaction, the plates were washed three times with 200 μL/well of 1 mM MnCl₂/0.1% BSA/TBST or 10 mM EDTA/0.1% BSA/TBST. A 1.5 μg/mL solution of a biotin-labeled Velcro antibody (prepared as described in Takagi, J., Erickson, H. P. and Springer, T. A. (2001) Nat. Struct. Biol. 8, 412-416) in 1 mM MnCl₂/0.1% BSA/TBST was added at 50 μL/well and allowed to react with agitation using the shaker at room temperature for 30 minutes. […]

α6β1 integrin [3] = molecular target: T1, α6β1 integrin; test: solid-phase integrin binding assay (ELISA): Chimera-511 coated at 10 nM, α6β1 integrin titrated 0.001-100 nM in 1 mM MnCl2
Description: as §1, §2, §3

Kd [1]: 0.9 nM
Molecule: α6β1 integrin (from UniProt P23229 24-1011; P05556 21-728) (receptor)

Kd (α6β1 integrin [2]): 0.59 nM
B1: Human laminin 511E8 fragment (human laminin α5β1γ1E8) (other)
chain 1: HHHHHHAAEDAAGQALQQADHTWATVVRQGLVDRAQQLLANSTALEEAMLQEQQRLGLVWAALQGARTQLRDVRAKKDQLEAHIQAAQAMLAMDTDETSKKIAHAKAVAAEAQDTATRVQSQLQAMQENVERWQGQYEGLRGQDLGQAVLDAGHSVSTLEKTLPQLLAKLSILENRGVHNASLALSASIGRVRELIAQARGAASKVKVPMKFNGRSGVQLRTPRDLADLAAYTALKFYLQGPEPEPGQGTEDRFVMYMGSRQATGDYMGVSLRDKKVHWVYQLGEAGPAVLSIDEDIGEQFAAVSLDRTLQFGHMSVTVERQMIQETKGDTVAPGAEGLLNLRPDDFVFYVGGYPSTFTPPPLLRFPGYRGCIEMDTLNEEVVSLYNFERTFQLDTAVDRPCARSKSTGDPWLTDGSYLDGTGFARISFDSQISTTKRFEQELRLVSYSGVLFFLKQQSQFLCLAVQEGSLVLLYDFGAGLKKAVPLQPPPPLTSASKAIQVFLLGGSRKRVLVRVERATVYSVEQDNDLELADAYYLGGVPPDQLPPSLRRLFPTGGSVRGCVKGIKALGKYVDLKRLNTTGVSAGCTADLLVGRAMTFHGHGFLRLALSNVAPLTGNVYSGFGFHSAQDSALLYYRASPDGLCQVSLQQGRVSLQLLRTEVKTQAGFADGAPHYVAFYSNATGVWLYVDDQLQQMKPHRGPPPELQPQPEGPPRLLLGGLPESGTIYNFSGCISNVFVQRLLGPQRVFDLQQNLGSVNVSTGCAPALQAQTPGLGPRGLQATARKASRRSRQPARHPA
chain 2: LQHSAADIARAEMLLEEAKRASKSATDVKVTADMVKEALEEAEKAQVAAEKAIKQADEDIQGTQNLLTSIESETAASEETLFNASQRISELERNVEELKRKAAQNSGEAEYIEKVVYTVKQSAEDVKKTLDGELDEKYKKVENLIAKKTEESADARRKAEMLQNEAKTLLAQANSKLQLLKDLERKYEDNQRYLEDKAQELARLEGEVRSLLKDISQKVAVYSTCL
chain 3: EANDILNNLKDFDRRVNDNKTAAEEALRKIPAINQTITEANEKTREAQQALGSAAADATEAKNKAHEAERIASAVQKNATSTKAEAERTFAEVTDLDNEVNNMLKQLQEAEKELKRKQDDADQDMMMAGMASQAAQEAEINARKAKNSVTSLLSIINDLLEQLGQLDTVDLNKLNEIEGTLNKAKDEMKVSDLDRKVSDLENEAKKQEAAIMDYNRDIEEIMKDIRNLEDIRKTLPSGCFNTPSIEKP
notes: range 2534-3327;range 1561-1786;range 1362-1609; Heterotrimer of α5E8, β1E8 and γ1E8, expressed in 293-F cells; also called LM511E8; LM511 E8; not shown: HA tag, N-terminal; FLAG tag, N-terminal

Kd (α6β1 integrin [3]): 0.58 nM
B2: Chimera-511 (chimeric protein having human fibrinogen fused to an integrin-binding domain of human laminin 511), not treated with thrombin (other)
chain 1: QGVNDNEEGFFSARGHRPLDKKREEAPSLRPAPPPISGGGYRARPAKAAATQKKVERKAPDAGGCLHADPDLGVLCPTGCQLQEALLQQERPIRNSVDELNNNVEAVSQTSSSSFQYMYLLKDLWQKRQKQVKDNENVVNEYSSELEKHQLYIDETVNSNIPTNIGRVRELIAQARGAASKVKVPMKFNGRSGVQLRTPRDLADLAAYTALKFYLQGPEPEPGQGTEDRFVMYMGSRQATGDYMGVSLRDKKVHWVYQLGEAGPAVLSIDEDIGEQFAAVSLDRTLQFGHMSVTVERQMIQETKGDTVAPGAEGLLNLRPDDFVFYVGGYPSTFTPPPLLRFPGYRGCIEMDTLNEEVVSLYNFERTFQLDTAVDRPCARSKSTGDPWLTDGSYLDGTGFARISFDSQISTTKRFEQELRLVSYSGVLFFLKQQSQFLCLAVQEGSLVLLYDFGAGLKKAVPLQPPPPLTSASKAIQVFLLGGSRKRVLVRVERATVYSVEQDNDLELADAYYLGGVPPDQLPPSLRRLFPTGGSVRGCVKGIKALGKYVDLKRLNTTGVSAGCTADLLVGRAMTFHGHGFLRLALSNVAPLTGNVYSGFGFHSAQDSALLYYRASPDGLCQVSLQQGRVSLQLLRTEVKTQAGFADGAPHYVAFYSNATGVWLYVDDQLQQMKPHRGPPPELQPQPEGPPRLLLGGLPESGTIYNFSGCISNVFVQRLLGPQRVFDLQQNLGSVNVSTGCAPALQAQTPGLGPRGLQAHHHHHHHHHH
chain 2: ADSGEGDFLAEGGGVRGPRVVERHQSACKDSDWPFCSDEDWNYKCPSGCRMKGLIDEVNQDFTNRINKLKNSLFEYQKNNKDSHSLTTNIMEILRGDFSSANNRDNTYNRVSEDLRSRIEVLKRKVIEKVQHLARLEGEVRSLLKDISQKVAVYSTCL
chain 3: YVATRDNCCILDERFGSYCPTTCGIADFLSTYQTKVDKDLQSLEDILHQVENKTSEVKQLIKAIQLTYNPDESSKPNMIDAATLKSRKMLEEIMKYEASILTHDSSIEEIMKDIRNLEDIRKTLPSGCFNTPSIEKP
notes: range 31-194;range 2716-3310;range 20-151;range 1761-1786;range 27-132;range 1579-1609; Chains in order: Chimera-α5, Chimera-β1, Chimera-γ1; also called Combination-3
